Measured values as given in article PMC3365582.

Molecular target: PaiB transcriptional regulator from Geobacillus stearothermophilus (Geobacillus stearothermophilus)
Experiment: crystal structure

stoichiometry N: 2
Substance: PaiB transcriptional regulator from Geobacillus stearothermophilus (natural protein)
